Data on 133 substances can be found in the supplement of paper PMC12042874.

± gives the uncertainty stated by the source.

The data set can be described thus: amyloid nucleation score (Sup35N fusion, yeast selection) (log enrichment); library NNK3; higher = more nucleation; inactive = no reads after selection. The method in brief:
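The nucleation score equals the log enrichment of output over input reads from DiMSum, centred on the mode score of non-aggregating sequences. It was computed only for sequences with 100 or more input reads. The reads came from Illumina sequencing of plasmid inserts from psi-negative yeast expressing Sup35N fused to peptides of 20 random codons, induced with 100 μM copper sulfate for 24 hours and grown 7 days at 30°C without adenine and uracil.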
DWCVSSEMSVTNALQATKFA: the amyloid nucleation score result was “inactive”. For FWFWMIVDNRWYSLAVEARW the value was -0.304 ± 0.8; for CENIVGMPDRRISSVAGPDG, 0.486 ± 0.33. In the case of TFTLSCFTCNGFVSDVVHCD it was 3.21 ± 0.054; in that of LLFRFMTGVVRLPRDNTYRK, “inactive”. As for NESFGTARSAGDGMKNVPGP, the amyloid nucleation score entry is “inactive”. For MSIDPHILVLVGEWLVCLKL the value was “inactive”. For FVTSVQVRFNMGFFAELFAV the value was “inactive”. For KPGIIIVFVGHG, the amyloid nucleation score result is “inactive”. In the case of IEFGVCKVRNVVNDVRFRRG it was “inactive”; in that of ACMNSSSRSVMLLMCYYFSN, “inactive”.

With IFLDNFFKSFFGRRGSKS, the amyloid nucleation score is 0.662 ± 0.13.

For the substance RWNVHCYAMLFDVGLVDARL, the amyloid nucleation score result was “inactive”. As to DCDQVPI, the amyloid nucleation score result is “inactive”. For LYEAVDRGLSRR the value was “inactive”.

Consider CPTASHNIALLTYDQTRTQY, for which the amyloid nucleation score entry was “inactive”. In the case of WCCLETRLYL it was 1.5 ± 0.1; in that of YKHFYSFFCISFS, 1.88 ± 0.08; in that of GVNVTKVFTFRMVSCGPDDF, 0.294 ± 0.21. With YWVWLGPQNI, the amyloid nucleation score was 0.115 ± 0.41.

As to STIKFTGFVYFSN, the amyloid nucleation score entry is “inactive”.

With SVNTLLALRV, the amyloid nucleation score result was “inactive”. For LLDLDCYASLVSTTLEHMSG the value was “inactive”. On to ILSFEVWFGLWSTCGLYPHK, for which the amyloid nucleation score result was “inactive”.

Regarding VVSLPTNILSNTIGEYMEVQ, the amyloid nucleation score result is “inactive”.

In the case of LKNFKSSAHLMQMIVLNFAY, the amyloid nucleation score result is “inactive”. In the case of DVSRVIA it was “inactive”; in that of FISSSSTRILQYGRYTVEIN, “inactive”. In the case of ICSFFGNSPVRLQVYFLWSW it was “inactive”; in that of ANMCNCKAIHRFNKFNICSR, “inactive”. As to LNILVTC, the amyloid nucleation score entry is “inactive”. For VLGMNEPCSFW the value was “inactive”; for LSYSIRLLIFVRR, -0.293 ± 0.82; for PLDQCPKVPSLVASLQSESR, “inactive”. For VISVGLVIKRLYSMWYLAAG the value was “inactive”. In the case of VQLLDLKILIIDSVDSKYVC it was “inactive”; in that of VISCCP, “inactive”. On to LYLFMAYGVLGVLRQ, for which the amyloid nucleation score amounted to 0.397 ± 0.42. For SPDHLGRLLY the value was “inactive”. On to YHTARFGIKFLLRM, for which the amyloid nucleation score entry is “inactive”. VGCIRGNGFVTQQATGY: the amyloid nucleation score result is “inactive”. For SIFPF the value was “inactive”; for HLTHVYVADSVGLKLFVYHP, 1.9 ± 0.072. In the case of VGRAEWLC it was “inactive”; in that of WQCNCGASICASHKKCANMN, 0.128 ± 0.3; in that of FCGPFSYGRLTYGFWFRKRP, 1.75 ± 0.11. Take SAMFTGNLYFDFVDPCYSGW: the amyloid nucleation score result was “inactive”.

With WEDMVDNHE, the amyloid nucleation score came out at 1.32 ± 0.087.

For the substance AIRGVARLRVMDRVSALPLR, the amyloid nucleation score result was “inactive”. As to IQMSNLNNTSLQVRRPRPCV, the amyloid nucleation score entry is “inactive”. In the case of SLGQLYDLGSRW it was -0.805 ± 1.7; in that of YILRFSWFIYLIRQWSNSGP, “inactive”.

For the substance GSKFIFFLMFYGVWLRSPSK, the amyloid nucleation score entry is “inactive”. In the case of LRGCLKSVIDTSLG it was “inactive”; in that of SRYMNRR, “inactive”. In the case of KDLYIIIITRMYRIFKS it was “inactive”; in that of VAYRTGSDG, “inactive”. For CVPCRQHTYSWDFVRVHLTV the value was “inactive”; for NIVERGSDLRGLCKTFNDIA, “inactive”. Take SYGNCSSMHGPVKMLRICHQ: the amyloid nucleation score entry was “inactive”.

In the case of MGMFTNPT, the amyloid nucleation score result was “inactive”. Regarding DYATESFTVITLLGILLDRG, the amyloid nucleation score result is “inactive”. Consider RSQFV, for which the amyloid nucleation score entry was “inactive”. Consider VMLRMDARQWHSLATVTVVP, for which the amyloid nucleation score result was “inactive”. For HAQCLMSIIEVS the value was -0.029 ± 1.1; for WFAWIH, “inactive”. In the case of VLRSANCCCGFD, the amyloid nucleation score result is “inactive”.

With YVHFLFQTHIRCMVRFSLCW, the amyloid nucleation score entry is “inactive”.

With SFNSNSDDDIIFDALNYTLN, the amyloid nucleation score was 0.069 ± 0.62. In the case of IRMHGWPYRLVREICFNGFF it was 0.028 ± 0.5; in that of KIDLVGTLVMTIFNAQMQYE, 2.06 ± 0.083; in that of KRSSSAAIKKRIIVQIDGNR, “inactive”. For MTVHDIHYLS the value was “inactive”; for NTEGCSSQICRN, “inactive”. For the substance CIRLRKANINRKDQKRGCMV, the amyloid nucleation score entry is “inactive”. In the case of DRHSRCQ it was “inactive”; in that of TFTTFRWDEGVLLYLYERVG, “inactive”.

For GFLTKCALWKIWF, the amyloid nucleation score result was “inactive”. For VYTGWKKVACNA, the amyloid nucleation score is -0.211 ± 0.53.

With MSFTMMCMSFCSSILRYNLS, the amyloid nucleation score entry is “inactive”. Take FASIVFRCVLFTLFHPAVFR: the amyloid nucleation score result was “inactive”. The substance FFFFTLKTSVQADLHDMLSQ gave an amyloid nucleation score of 0.792 ± 0.16. For SKWYLFITGFRYMWFVRFNV the value was “inactive”; for DVNIRSSGDNTIAFKYYTMK, 0.14 ± 0.38; for YVSPNF, “inactive”. In the case of AYLYNFLWDTGSVIWVVGHL it was “inactive”; in that of IRFSGIVAVMISQGGSRREC, 2.5 ± 0.08. Turning to AIGDVTVGRIHFDMHCGLGR, the amyloid nucleation score is -0.955 ± 1.2.

GYQDAFIP: the amyloid nucleation score result is “inactive”. For PVYVG the value was “inactive”; for VHVVLIIWTSHQLTCADLAY, “inactive”; for RHFDSMTINLYTTSLTFFAN, “inactive”. For EIIFSSLSIPLYMLEGI the value was “inactive”; for RWYRLSGYKSHRNR, “inactive”. Regarding ITKKRYNCRMFLIT, the amyloid nucleation score result was “inactive”. In the case of LCTSLLKF it was -0.5 ± 0.9; in that of LLYVKFIVPYTTM, “inactive”. For LYYKSLGRCRNYLYCSH the value was 0.596 ± 0.12. In the case of WVQVCCVNTNGRSFQLEGSI it was 1.36 ± 0.097; in that of LCFFV, “inactive”; in that of LNLSYGM, “inactive”.

As for CVFCVNRTLLIVWIMVRY, the amyloid nucleation score entry is “inactive”. Turning to TGFYDCNLGLDLCIAIWVCS, the amyloid nucleation score was -0.156 ± 0.34. Consider YGMGSGTTMVCPKVAWG, for which the amyloid nucleation score result was “inactive”. With CKEHLHQLFMGRCSTV, the amyloid nucleation score result was “inactive”. With NTIHITTWDELVQLAQCDNL, the amyloid nucleation score entry is “inactive”.

On to DMYVLLMRTQSLGMPLIGIS, for which the amyloid nucleation score result was “inactive”. For IFLYNVLIGLCLDNPYKLFG the value was “inactive”; for IMPPEFVFIFHRMNGHYLGF, “inactive”; for RMHMKLVGKG, “inactive”. In the case of IRLPIGQGLC it was “inactive”. In the case of SAKFTLLGISL, the amyloid nucleation score result is “inactive”. In the case of YNCRVAVRWYS it was “inactive”; in that of SGVTHDHLTYVLGGGKVVSR, “inactive”; in that of TGMFL, -0.004 ± 0.2.

For the substance DPYAGLDNLTRIWASKPSKY, the amyloid nucleation score entry is “inactive”. In the case of TARPSNKMNHRECCTNKFFP it was “inactive”. In the case of RMNCQFTGMSTFRPPLLGAR it was “inactive”; in that of VLVESDLSVIATVSGLLCAR, “inactive”. For the substance VLNFIMAWYNFRFVWGSMGV, the amyloid nucleation score entry was “inactive”. In the case of DCFNNWWVTHYQQINFPTVA, the amyloid nucleation score entry was “inactive”. As to SASCKYGVCLSDLLVSDWHY, the amyloid nucleation score entry was “inactive”.

VTVQK: the amyloid nucleation score entry is “inactive”.

Consider SWTFRTLSKCVYYSFCREMD, for which the amyloid nucleation score result was “inactive”. For CRVFRNNDYSKVSFWLVSVF the value was “inactive”; for WTKECISIGRTWIYRRVGRG, 0 ± 0.59; for TYLCFYTKRPDAVYWSTLDH, “inactive”. For LALFDRGTCRQSSVYSGEDS the value was “inactive”; for LRCYDILLDA, “inactive”; for LDLDSNIGFISVLPF, “inactive”. In the case of FVSPNLIVMVWVHWRSEINR it was “inactive”; in that of RMGVPTSYPDPDLSNDVER, “inactive”; in that of YMGLTLSVMRPGMTYFPKMF, “inactive”.
